Consider 6 proteins from article PMC5726920 (Nature chemical biology, 2017).

To fix the notation:
B1: human mitochondrial superoxide dismutase (enzyme)
chain: KHSLPDLPYDYGALEPHINAQIMQLHHSKHHAAYVNNLNVTEEKYQEALAKGDVTAQIALQPALKFNGGGHINHSIFWTNLSPNGGGEPKGELLEAIKRDFGSFDKFKEKLTAASVGVQGSGWGWLGFNKERGHLQIAACPNQDPLQGTTGLIPLLGIDVWEHAYYLQYKNVRPDYLKAIWNVINWENVTERYMACKK
B2: mitochondrial malate dehydrogenase (enzyme)
chain: AKVAVLGASGGIGQPLSLLLKNSPLVSRLTLYDIAHTPGVAADLSHIETKAAVKGYLGPEQLPDCLKGCDVVVIPAGVPRKPGMTRDDLFNTNATIVATLTAACAQHCPEAMICVIANPVNSTIPITAEVFKKHGVYNPNKIFGVTTLDIVRANTFVAELKGLDPARVNVPVIGGHAGKTIIPLISQCTPKVDFPQDQLTALTGRIQEAGTEVVKAKAGAGSATLSMAYAGARFVFSLVDAMNGKEGVVECSFVKSQETECTYFSTPLLLGKKGIEKNLGIGKVSSFEEKMISDAIPELKASIKKGEDFVKTLK
B3: murine cytosolic aspartate aminotransferase (enzyme)
chain: MAPPSVFAQVPQAPPVLVFKLTADFRDDPDPRKVNLGVGAYRTDESQPWVLPVVRKVEQKIANDNSLNHEYLPILGLAEFRSCASRLVLGDNSLAIRENRVGGVQSLGGTGALRIGADFLGRWYNGTDNKNTPIYVSSPTWENHNAVFSAAGFKDIRPYCYWDAEKRGLDLQGFLNDLENAPEFSIFVLHACAHNPTGTDPTPEQWKQIAAVMQRRFLFPFFDSAYQGFASGDLEKDAWAIRYFVSEGFELFCAQSFSKNFGLYNERVGNLTVVGKESDSVLRVLSQMEKIVRITWSNPPAQGARIVAATLSDPELFKEWKGNVKTMADRILTMRSELRARLEALKTPGTWSHITEQIGMFSFTGLNPKQVEYLVNEKHIYLLPSGRINMCGLTTKNLDYVATSIHEAVTKIQ
B4: creatine kinase M from mouse heart (enzyme)
chain: not shown
B5: NAD(P)H-hydrate epimerase (enzyme)
chain: ASTVVKYLSQEEAQAVDQELFNEYQFSVDQLMELAGLSCATAIAKAYPPTSMSRSPPTVLVICGPGNNGGDGLVCARHLKLFGYEPTIYYPKRPNKPLFTALVTQCQKMDIPFLGEMPAEPMTIDELYELVVDAIFGFSFKGDVREPFHSILSVLKGLTVPIASIDIPSGWDVEKGNAGGIQPDLLISLTAPKKSATQFTGRYHYLGGRFVPPALEKKYQLNLPPYPDTECVYRLQ
B6: 3-hydroxyisobutyrate dehydrogenase (enzyme)
chain: ASKTPVGFIGLGNMGNPMAKNLMKHGYPLILYDVFPDVCKEFKEAGEQVASSPAEVAEKADRIITMLPSSMNAVEVYSGANGILKKVKKGSLLIDSSTIDPSVSKELAKEVEKMGAVFMDAPVSGGVGAARSGNLTFMVGGVEDEFAAAQELLECMGSNVVYCGAVGTGQSAKICNNMLLAISMIGTAEAMNLGIRSGLDPKLLAKILNMSSGRCWSSDTYNPVPGVMHGVPSSNNYQGGFGTTLMAKDLGLAQDSATSTKTPILLGSLAHQIYRMMCSKGYSKKDFSSVFQYLREEEPF

The series deals with the molecule itself. In words: native MS.
The term stoichiometry N denotes the number of molecules, sites or subunits per partner or assembly. With B1, the “stoichiometry N” value worked out at 4.

Regarding B2, the “stoichiometry N” value was 2.

Regarding B3, the “stoichiometry N” value stood at 2.

In the case of B4, the “stoichiometry N” value amounted to 2.

As to B5, the “stoichiometry N” value worked out at 2.

On to B6, for which the “stoichiometry N” value was found to be 4.
